Experiment: soluble on expression in E. coli; label from the status in PepcDB or PDB records
With “MAADESYPSVKERAFFQGLPFDYAVVFDNALIDRLFSRLRQERALVEDGLLARPDHRPWRLGALITEADTLDRRLSEQIRCLSGQSLPVASIALVTATTEAREAVSLWASVTCPPNVVVTPDPRAWMAEADLDLVVVFAPGALAHPGLFAALGRALQRDGADFAVWNHLLVRRRAEAPGQDITYLRCPDPTRQPVALAHMEAAGPAWAATPRLFETIKGDLGKALIGMARHPLSIALLRGKPKVVRLNEFLGACRVDSLGTPPWPRQSALVEAYGAALEDETFRLEIDPAHPTQPIRLTPRRRAHSIDIVINFRDKPELTLAAMGSIYAQTTTARVSLFLIDNQSTPAARAAIDAEAARAPAGIAVRVLSYDRPFNHSAQTNLGAAAGNGEALVFMSNDCALVDPGALDEMAAWALAPGVGTVGVRLETAEGRLACSGICALYPDHDFHPIVAEGFDQLGAGLNRETFANTFACACLARAVFRQAGPLDAIGFPIGLNDVDYCLRLRERGLRHLYLGAFLARHQALGSRPASDDGAQSAFLRQTYGHLLFDKEYMLEYDFLRQFTAAKLRQDIRSQRDKTTTVLEHHHHHH” the “soluble on expression in E. coli” value was “not soluble”. With “MAAIKINKLLTIESNSSHTLLESMEQAGLEPEYNCRDGHCGACRCQLISGEVEYVGFAMAYTQGNEILPCICRAKTALEIEQVTYQLKAKRA” the “soluble on expression in E. coli” value was “not soluble”. For “MAAMPKPAAFWNDRFANEEYVYGEAPNRFVASAARTWLPEAGEVLLLGAGEGRNAVHLAREGHTVTAVDYAVEGLRKTERLATEAGVEVEAIQADVREWKPARAWDAVVVTFLHLPADERPGLYRLVQRCLRPGGRLVAEWFRPLEHHHHHH”, the “soluble on expression in E. coli” value was “not soluble”. In the case of “MAANGAKGRKVMRVLVVDNYDSFTYNLVQYLGELGAEPIVWRNDRFRLEEVEALDPDRILISPGPCTPFEAGLSVPLVQRYAPRYPILGVCLGHQAIGAAFGGKVVPAPVLMHGKVSPIHHDGTGVFRGLDSPFPATRYHSLAVVEVPEALVVNAWAEEAGGRTVMGFRHRDYPTHGVQFHPESYLTEAGKLILKNFLEDPWTR”, the “soluble on expression in E. coli” value is reported as “soluble”. With “MAANGVATLNSSGKLAQMPSASDVGALPITGGEMQGALKLKANQYGGSGPADEKYALDCQNSNIVNVNRILTADPAGSASEGWGFQREDDPDAYDVIWASNGTLYFTPGFKYNTPPYPANQRVLATTDNIALTNYLRQEYNKLKESEGTPTLNDIINGFGFCYNDSSNGAGLDGTYLTVSGMLDNKYRLQLLGQYNGSNWLAYRTRNGDEQSWNPWHKVLTDNINAAISARHQYTSSSYPQIYGNGILQLGGDSRNEYGVVLRSNGTDEANAFRPSVNAGTTGHLYLGVANQKWRAVFAQNGTIQTSDRNAKHDITDLDPEKITAFIMGLKPSSYVFNDADSGRTHWGLISQDIEELFPQLGMTSMDFAGFIKSPKTEDYYEDVPETVTDEETGEEKTVTRKELKTRTVEGEYIYSLRYDEFIAPLICMVQRQQRQIEYLERRLSASESKEEAKLEHHHHHH” the “soluble on expression in E. coli” value was “not soluble”. With “MAANIQQQFGEQLLRAAQVVEEQIDQEMNKLENLEEDDLEVIRRQRMEQMKKAQKDRIEMLSHGHGKYEEVADEKEFFEATKKSDKVVCLFYLPGNFRCKIVDKHFEILARKHVGTRFIHVNAEKVHFLTTRLNIRVIPSIAIVVKQQTVDYIRGFDELGGKDEFTTETMENRLARSEVLTVEKKHTAPAKKKIIRSGVEEYDNEEDW” the “soluble on expression in E. coli” value was “not soluble”. For “MAAPAAVRRGGRSTSSAMAMDSGRPVTSGILASLCEQWQNQPRTPLSHRSGNLPMSDPDVLIIGAGHNGLTCAAYLARAGLKVKVVERRNVVGGAAVTQEFHPGFRNSVAAYTVSLLNPKVIADLKLHEHGLRIVERKAQNFLPAPDGQYLLTGSNTTAASLARLSAHDAAAFGGFAAELETIADVLRHFVLRAPPNLVVQFGLPAIRESLNALETANRLRALTMEQQRLLLDLFTCSAGEMLDARFEHDLVKALFGFDAIVGNYASPYAAGSAYVMLHHAFGEVNGKKGVWGHAIGGMGAITSAMAAAARAAGAEIETSAGVREVLVEKDRVVGVTLDDGRNVRARFVASNVNPKLLYTRLLPQDALPDDVRRRMQNWKTGSGTFRMNVALSRLPSFTALPGDGDHLTAGIIIAPSLGYMDRAYQDARAHGWSREPVVEMLIPSTLDDSLAPKGQHVASLFCQHVAPELPDGASWDDHRDEVADLMIATVDRYAPGFAASVLGRQILSPLDLEREFGLVGGDIFHGALSLNQLFSARPLLGHADYRGPLKGLYHCGSGAHPGGGVTGAPGHNAAAAILNDHRSLFASRGLEHHHHHH”, the “soluble on expression in E. coli” value was “not soluble”. For “MAAPLGGMFSGQPPGPPQAPPGLPGQASLLQAAPGAPRPSSSTLVDELESSFEACFASLVSQDYVNGTDQEEIRTGVDQCIQKFLDIARQTECFFLQKRLQLSVQKPEQVIKEDVSELRNELQRKDALVQKHLTKLRHWQQVLEDINVQHKKPADIPQGSLAYLEQASANIPAPLKPTLEHHHHHH”, the “soluble on expression in E. coli” value was “not soluble”. For “MAAQKSALILLPPEDAEEIEVIVTGDVLVRGGLQVLYAGSSTEPVKCAKGARIVPDVALKDVKNKTFDIIIIPGGPGCSKLAECPVIGELLKTQVKSGGLIGAICAGPTVLLAHGIVAERVTCHYTVKDKMTEGGYKYLDDNVVISDRVITSKGPGTAFEFALKIVETLEGPEKTNSLLKPLCLAK”, the “soluble on expression in E. coli” value was “not soluble”. In the case of “MAASRDIFAPDFRRRPYWWEGYEPPECGEDTLPASADVAIVGGGYTGVCCALALREAGIEAVVLEAGRPGEGASTRSGGQVSGGVNVQKKALAAVGESAGQRAERLAARLRDAAASMAYVESLIERYAIECGWRRTGRLTTMWVPAHYQSWQARLDQLNACTGSQARMIPREELAAEIGSSVYHGAALIEHAGHLQPAQLYGGMLRAARDAGARVLGRTPVERIERRAGGYDVHTARGTVRAGQVVIATIGYTGANLGGLKRRIVPVCTHMIATEALPPDLAASLLPTNRAVSESRRVVNHYRLSPDGRRLLFGGRARFVPTDEATTARLLYRAMLKRFPQLAGTRITHSWGGNVAMTLDSMPHIGGADGLHYALGCNGSGVAMMSYLGHCVGRKIATQSGEPINAFDMGEIPGHPFYFGNPWFLFAIGSWYQARDAYDHWRARLEHHHHHH”, the “soluble on expression in E. coli” value is reported as “soluble”. For “MAATRAYHHGDLRRSVLSAALEVIRSDGVAAISLRDLARRAEVSHAAPAHHFKDKAGLLTAIATEGFELLAAALTAVPAGTTHRLREMGVRYVEFALDHPAHFDVMFRPQLLHVGDPELTAARERASRALASGVEDLPDMRAGLDARRAGLTAWSLAHGFATLQLGGSLPPLDDDPAEAFRALVADRLVVRLP”, the “soluble on expression in E. coli” value was “not soluble”. With “MACVDISPLSYESVKSVVKYLSLKKREQINLSIPAYHKTAKLAPFKLENVGLSDLYIEVNDRTWTLSETDIIGCTLVLYRSNGYNFQHIISITPEVAFQKLISEYLRNGTRIKKFHLYALPSLLKNVELHVSELKIDGCDYETFAKFRKFIDHNQKILKEIGFVVRQNTLWMFDEQLVKNSKEIYLQFPYYNPVPLDDMLLRLKNNHVHIIYLGFPIEKLQELAMNWIDTKKPIGTSLFLVVEHYTYVIDVFEHLTKYSKAIPSRLTDLGTSFFSHCVTMHIDESSELVLFGGPMVIEWKPFKWTLRMTIMKRGSTISK” the “soluble on expression in E. coli” value was “not soluble”. In the case of “MADANATICYLNGLSLHTINEVEKILLALPKKGDRCEVQMSKPLNRCIGRSTGDVIASRSVQIRDEPKPLSLSPQKSEQEIKKSSKSKKLSEDCCLRSIKERVEIVETRNGSDAFGAKKLQYKVLTDQVRVSPIVSCNGVTLELDVEVTIPDRDEKKKLKLEIDRTLSVLILSIRNH”, the “soluble on expression in E. coli” value is reported as “not soluble”. In the case of “MADANATICYLNGLSLHTINEVEKILLALPKKGDRCEVQVTKPLNGTIGRSTGDVIASKSMQIHDEPRPLSLSPPLQKSEKSSKSKKLSEYSCMSSTKEQMETVEIRNGSNASAAKKLQCKVLTDQVRVSPIVSCNGVILELDVEVTIPDREEKKKLKLEIECPDFVPARIKIGNKWKKIV”, the “soluble on expression in E. coli” value is reported as “not soluble”. In the case of “MADFITRAIELDEQYSQAILGINDQNLKVLENLLDCTIFVRGTRATLSGRDFEVSRGIRVLQELQSMAKRGHAISPDAVKNAVAIVAEDTPHSVNAVLASDIVARRGKVIRAKTLGQKDYVDAIDHNTIVFGLGPAGSGKTYLAMAKAVQALQAKQVNRIILTRPAVEAGEKLGFLPGTLNEKIDPYLRPLHDALRDMVDPEIIPKLMEAGIVEVAPLAYMRGRTLNDAFVILDEAQNTTPAQMKMFLTRLGFGSKMVVTGDITQVDLPGGQKSGLRLVRDILRGVEGVHFAELGSDDVVRHQLVGRIVDAYDAYEEQLKDK”, the “soluble on expression in E. coli” value is reported as “not soluble”. In the case of “MADLFNKHLKKATNRTKEKLLEGIGKAKATQDEVFDQHAANLNKQSKSCEKLHKDVKNYSSALRTLLSAEKQLRDTIRDAYEPEWPDREHLTAIFDNLDIQTNELEKTVCDDLPQTVTQYVNQFPDLKKKIEKRGRKLVDYDSAKNSFNSVKASSKKDNDPKLAKATMELQAAEQMYTEMNNELLEILPAVFDSRITFFVDTLQTLFNANSVYQTDASKFHKQIVMQLDKLGESMDYLRVARPEARALTPIDTTSLASSDAPATPDQNKSDNSSLRQTPSPSVLPSPVPAPMAKPRESVVSMANSTNPFDDDDAEHDKEATPTDVEEKFEAKVYPKLNAQQTAAAEQAIAAAKREKKEASNPFDDEDDESTEVEEAPKKKDPEPTPKPLDGITNEKRKTLYFVTSTHNYKAVDTDELSFEQGVQIKVIEANEDDQLDDGWRLGELEDGKRGVFPENFTKKV”, the “soluble on expression in E. coli” value is reported as “not soluble”. In the case of “MADNWGSENVVADAAPATEAPEVALFGKWSLQSVNVSDISLVDYIPVKEKSAKYLPHSAGRFQVRRFRKAACPIVERLANSLMMHGRNNGKKLMTVRIVKHAFEIIYLLTGENPVQVLVNAVINSGPREDSTRIGRAGTVRRQAVDVAPLRRVNQAIWLLCTGAREAAFRNVKTIAECLADELINAAKGSSNSYAIKKKDELERVAKSNR”, the “soluble on expression in E. coli” value is reported as “not soluble”. With “MAEIQFSKGVAETVVPEVRLSKSKNGQSGMAKFYFLEPTILAKESTDDITGMYLIDDEGEIITREVKGKFINGRPTAIEATVILNSQPEWDRFMRFMERYGAENGLGFSKSELEHHHHHH” the “soluble on expression in E. coli” value was “soluble”. For “MAEKKLLLGDEAIALGAIHAGISGVYAYPGTPSTEITEFIQNNRLAKERKLHSTWCTNEKTAMEAALGMSYAGKRALVCMKHVGMNVAADAFVNSAITGVNGGLVVLAADDPSMHSSQNEQDSRFYGKFAMIPMLEPSSQQEAYDMMDYAYTLSEKLKLPVLMRVVTRLAHSRAGVEVADIREENQLNPD”, the “soluble on expression in E. coli” value was “soluble”. With “MAELEKTFALIKPDAVRAGKAQEIMQLIELNGFTIIAKQKLQLTRARAEEFYGEHKGKEFFPKLVNFMTSGPIWALVLAKPGAILAWRALMGPTNVFKARAEQPKCLRALYGTDGTQNATHGSDSPISAAREIKFFFPTLSGDPTIYAEPTAAAEYITKRIQPALAKALAALAREKPSADKFEAITFVAGYLLQNNPNKPKVLMPDEWDPALMGDDEDDEADFINARLAAPTGNDGATKAEFDAMVEAAKADTGGAAPAQEFVYPDSKPTTPVVPAPPAPGSKPPSASGARPQSARPTSARPPSASAAPPAPLAPVPPPASSSRPASGSGRPPSATARPPSATPPPPPPAVELEEADDPAQLDEAATKVQAAFRGYQARKEVAVMRSEAQPGEAAAEPEQEAELQPEAEPEPQPEGEQEPQPQASASSSFLPDGVTEEMAAEAATRVQAHMRGHLARKQVAAIKAQQAAPAVAESSEALAEPEPQPEAEAEPQPQASVSSSFLPDGVTEEMAAEAATLVQAHMRGHLARKQVAAIKAQQAAPAVAESSEAQAEAEQTEAEAEPQPDAEAEAGAAEGEAEPEPEAAE” the “soluble on expression in E. coli” value was “not soluble”. With “MAEPKYAIIINDIKRLISDGTFKPGEKIYSEDELKKKYNVSNTTVVRALHELVRAGILARYQGKGTYVSKSIINEEVIFNEYTTVPNGKFNRKTKIANEHTKVVAINEIQDARIAKNLQIPPENMIVHFQRIRLIDDVPWTVQNNYMAKANLINVDLTNFERFNSLSEVIKELYGINILHEAMKERIQVEFPVKDKNNFKLLEIDSELPLYHIERITYVPEGQPYEYIESYLRHNFYSIEIEKKKQ” the “soluble on expression in E. coli” value was “not soluble”. In the case of “MAEQLEFFPVASPCRGICQSDERGFCRGCMRSRDERFNWQKMSDVEKQNVLRLCRQRFLRKIRANKPLPSEDPQQPSLF”, the “soluble on expression in E. coli” value is reported as “not soluble”.
